The source of these data is US20160017053A1 (IMMUNOGEN, published 2016).

Numbering of substitutions follows the chain as printed.

Experiment [1] concerns the target human EGFR (epidermal growth factor receptor) (human) (UniProt P00533). Kind of experiment: flow cytometry, binding curve of the biotinylated ligand on MDA-MB468 cells.
Experiment [2] has as its target T1, human EGFR (epidermal growth factor receptor) (human, UniProt P00533 25-1210). Kind of experiment: cell-based or functional assay.
Experiment [3] has as its target T1, human EGFR (epidermal growth factor …). Kind of experiment: flow cytometry on MDA-MB468 or A431 cells; EC50 of the curve taken as apparent Kd.
Experiment [4] shares this target. Description: flow cytometry on MDA-MB468 cells.
The target is the same in experiment [5]. Kind of experiment: flow cytometry on MDA-MB468 cells, apparent Kd from non-linear regression of geo mean fluorescence against [Ab] (M).

On to biotinylated EGF (Invitrogen) (ligand), for which, in experiment [1], the 50% effective concentration (EC50) is 1.8 nM.

B1: muEGFR-8-SMCC-DM1 conjugate (antibody, V domains shown)
VH: EVQLQQSGAELVKPGASVKLSCTTSGFNIKDTYIHWVKKRPEQGLEWIGRIDPTNGNNKYDPKFQGKATITADTSSNTAYLQLSSLTSEDTAVYYCTREDGYRYDDWYFDVWGAGTTVTVSS
VL: QIVLTQSPASMSASPGEKVTMTCSASSSVSYMHWYQQKSGTSPKRWIYATSKLASGVPARFSGSGSGTSYSLTISSMEAEDAATYYCQQWSSNPLTFGAGTKLELKR
modifications: DM1 linked through SMCC to the antibody; drug load and sites not stated
notes: Maytansinoid conjugate of the whole murine EGFR-8 antibody; its preparation is not described separately
For the molecule B1, in experiment [2], the “EC50 of in vitro cytotoxicity on NCI-H226 cells (WST-8)” value was 0.68 nM, the “EC50 of in vitro cytotoxicity on NCI-H292 cells (WST-8)” value turned out to be 0.43 nM and the “EC50 of in vitro cytotoxicity on NCI-H322M cells (WST-8)” value is 3.07 nM. Moreover, the Kd in experiment [3] was 4.54 nM.

B2: murine EGFR-8 antibody (antibody, V domains shown)
VH: B1 VH
VL: B1 VL
notes: Mouse monoclonal antibody purified from hybridoma; also called muEGFR-8
Turning to B2, the Kd in experiment [3] amounted to 1.43 nM.

B3: chimeric ML66-SMCC-DM1 (antibody, V domains shown)
VH: QVQLKESGPGLVQPSQTLSLTCTVSGLSLASNSVSWIRQPPGKGLEWMGVIWNHGGTDYNSVIKSRLSISRDTSKSQVFLKMNSLQTEDTAMYFCVRKGGIYFDYWGQGVMVTVSS
VL: DTVLTQSPALAVSPGERVTISCRASESVSTLMHWYQQKSGQQPKLLIYLASHRESGVPARFSGSGSGTDFTLTIDPMEADDTATYYCQQSRNDPWTFGGGTNLELK
modifications: Maytansinoid DM1 is linked to the antibody through the non-cleavable SMCC linker. The attachment sites and drug load for chML66 are not stated, and the letters cannot carry them.
B3: in experiment [2], the “EC50 of cytotoxicity on KB cells with 1 µM naked chML66 antibody blocking” value stood at 30 nM and the “EC50 of cytotoxicity on KB cells without blocking antibody” value is 3 nM.

B4: rat ML66 antibody (antibody, V domains shown)
VH: B3 VH
VL: DTVLTQSPALAVSPGERVTISCRASESVSTLMHWYQQKSGQQPKLLIYLASHRESGVPARFSGSGSGTDFTLTIDPMEADDTATYYCQQSRNDPWTFGGGTNLELKR
notes: Rat monoclonal antibody purified from hybridoma
On to B4, for which, in experiment [4], the “EC50 (read off the curve)” value is roughly 2 nM. For the same molecule, the Kd in experiment [5] was found to be 1.94 nM.

B5: huML66-SMCC-DM1 conjugate (antibody, human IgG1, kappa, V domains shown)
VH: B3 VH with K5Q, Q13K, Q16E, S61P, V62S, Q86T, T87A, E88A, M111L
VL: B4 VL with A9S, V18A, S39P, D80E, G99Q, N102K
modifications: DM1 linked through SMCC; sites not stated; DM1 linked through SMCC; 3.5-4 DM1 molecules per antibody; sites not stated
Turning to B5, the Kd in experiment [3] stood at 2.33 nM.

B6: humanized ML66 (huML66) antibody (antibody, human IgG1, kappa, V domains shown)
VH: B3 VH with K5Q, Q13K, Q16E, S61P, V62S, Q86T, T87A, E88A, M111L
VL: B4 VL with A9S, V18A, S39P, D80E, G99Q, N102K
In the case of B6, the 50% effective concentration (EC50 (read off the curve)) in experiment [4] was roughly 1 nM. Besides, the figures for the Kd in experiment [3] and in experiment [5] were 1.12 nM and 1.23 nM, respectively.

B7: huML66-SPDB-DM4 conjugate (antibody, human IgG1, kappa, V domains shown)
VH: B3 VH with K5Q, Q13K, Q16E, S61P, V62S, Q86T, T87A, E88A, M111L
VL: B4 VL with A9S, V18A, S39P, D80E, G99Q, N102K
modifications: DM4 linked through SPDB; sites not stated; DM4 linked through SPDB; 3.5-4 DM4 molecules per antibody; sites not stated
In the case of B7, in experiment [3], the Kd came to 2.93 nM.
